From the supplement of paper PMC12764529
± gives the half width of the 95% confidence interval.

Legend:
[1] = folding stability dG unfold from trypsin proteolysis; higher = more stable
Procedure, shortened: (§1)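 Designed mini-proteins (under 80 residues, no cysteine) in a PA-tagged cDNA display construct were digested with trypsin and chymotrypsin. Each protease was used at 11 concentrations (threefold dilutions) plus a no-protease condition, followed by sequencing. K50 was inferred by Bayesian fitting of sequencing counts, and unfolding free energy was derived against a sequence-predicted unfolded-state K50 and a shared folded-state K50, per protease or combined. Only designs with AlphaFold2 dimer inter-PAE above 15 were kept.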

[2] = folding stability dG unfold (combined trypsin and chymotrypsin); higher = more stable
Procedure, shortened: as §1

[3] = folding stability dG unfold from chymotrypsin proteolysis; higher = more stable
Procedure, shortened: as §1

Row | Sequence | folding stability dG unfold [1] | folding stability dG unfold [2] | folding stability dG unfold [3]
1 | SAGGMNIVTYTLTIPPGRIEEVKEAIEALGIPVVKVELVEVLPGEGLAIVKIEVPNNVDPEKVKKALSSAGG [r13_725_JUSTAS] | 3.97 ± 0.19 kcal/mol | 4.09 ± 0.12 kcal/mol | 4.13 ± 0.14 kcal/mol
2 | SAGGSAMVTPEERVEAALAYIRGKYGFPLSATPAQLREAGLPVRVELTVTDADGRPLATVTLEIPGSAGGSA [r15_391_TrMRF] | 1.39 ± 0.037 kcal/mol | 1.65 ± 0.07 kcal/mol | 1.78 ± 0.089 kcal/mol
3 | SAGKKLFIKVKIRVKKKVKLKDGKTVEKEKELTLLIEAESEEEALEAAKKLAEELGLEIEKVEIFKAPSAGG [r19_176_TrROS_Hall] | 2.41 ± 0.15 kcal/mol | 3.09 ± 0.27 kcal/mol | 3.75 ± 0.16 kcal/mol
4 | SAGGSMAKILEIIPEEKKIVVEFEGDPKTFPLDEIEEIRIEPEKGYLTIKVGDKVYTIPLDDPNDFSAGGSA [r2_48_TrMRF] | 0.579 ± 0.027 kcal/mol | 1.81 ± 0.082 kcal/mol | 2.25 ± 0.044 kcal/mol
5 | SAGGSAGGSAGKEIIKNIPKGVKVLKIEPLPGKSGTYVKIEVEFPDPNGVKHRLTFIAPESAGGSAGGSAGG [r17_140_TrMRF] | 0.67 ± 0.15 kcal/mol | 1.16 ± 0.23 kcal/mol | 1.34 ± 0.14 kcal/mol
6 | SAGGEKKPVKVKIEVESFKLPNVLVLKAKVYLPATGKWYEAIVIEGPTKTLVVIKFPDGSSLVLELNSAGGS [r16_657_TrMRF] | 2.97 ± 0.17 kcal/mol | 3.9 ± 0.31 kcal/mol | 4.12 ± 0.12 kcal/mol
7 | SNNKRITIEIPFPMPAEQARNFMEAFGIKKIEYEKHDDPGYYRVKYTVPDDNVTIDIHIFPPPVPPGQKPSA [r9_1090_TrROS] | 1.23 ± 0.024 kcal/mol | 1.67 ± 0.13 kcal/mol | 1.83 ± 0.15 kcal/mol
8 | SAGGMITEKVEKIDDGEIIKLTANLSDPSPVVAWLKATGKNVKLVEIKPTTDPETGNTTVNATFLLPSAGGS [r16_699_JUSTAS] | 0.109 ± 0.25 kcal/mol | 0.0229 ± 0.22 kcal/mol | -0.234 ± 0.41 kcal/mol
9 | SAGGAEELAKRLAEELREAGYEVEVVKVERLENGEVVITMKVRVVKDGKEVEEREIKLVLKLPEELLSAGGS [r8_102_TrROS_Hall] | 3.93 ± 0.097 kcal/mol | 3.98 ± 0.086 kcal/mol | 4.03 ± 0.069 kcal/mol
10 | SGPTSITFPDGSSASISLSPDSFTITITLPGSSATSTYDPATGTTTITLTFSSSTVTLTLDPATGTLTVGSA [r9_207_JUSTAS] | 3.86 ± 0.11 kcal/mol | 4.89 ± 0.11 kcal/mol | 5.01 ± 0.083 kcal/mol
11 | SAGGSAGGKKKVLLVKVEIELPNGEKLELVAESEEEALEALKKLLEKKGLKIKKVEIVELEEKESAGGSAGG [r6_405_TrROS_Hall] | 1.64 ± 0.071 kcal/mol | 2.17 ± 0.077 kcal/mol | 2.41 ± 0.051 kcal/mol
12 | SAGGMKIKLKNGKVIEIKKKPGYIEIKIIDKKTKKVYTYTFKSKDGKISLEDLAKKLAELPNIKEIIPSAGG [r13_579_TrROS_Hall] | 3.3 ± 0.29 kcal/mol | 4.27 ± 0.32 kcal/mol | 4.48 ± 0.15 kcal/mol
13 | SAGGMKTFEKPMTAEEVMALLEEIAKKGNVNVTIETEGKTYEVDPSKAKPIPPENVTAKITITELPKSAGGS [r16_628_JUSTAS] | -0.051 ± 0.15 kcal/mol | 0.186 ± 0.28 kcal/mol | -0.182 ± 0.17 kcal/mol
14 | MVELVEVTRENGLVTVTVANPIPGATLTVEVRDPEGKVLASSTSPSPTVTVTAEIPPDEDFSVTVTQTPPAS [r1_382_JUSTAS] | 3.43 ± 0.14 kcal/mol | > 6 kcal/mol | 3.99 ± 0.2 kcal/mol
15 | SAGKPKVIFIEGMTKEQLRAAIDEAKKKLKPGDIIVVRSKEAADALKELLPDLTVYLVDEETKEVKKLPSAG [r5_391_TrROS_Hall] | 1.91 ± 0.14 kcal/mol | 2.08 ± 0.14 kcal/mol | 2.1 ± 0.067 kcal/mol
16 | SAMSLEDMTPEELEELVKELIEKLREELEKEGKTIKPGETIEIEIEVKGKKLKIKITVDKDGNIKIEVESAG [r14_501_TrROS_Hall] | 2.87 ± 0.2 kcal/mol | 2.97 ± 0.092 kcal/mol | 3.03 ± 0.084 kcal/mol
17 | SGFTVEVEVEYYPETGVLEVTVTTDGSSEQLIRDVADFIKEAGLDFVIESVEVEESGEVTTITLKLYVPPSA [r9_164_TrMRF] | 3.03 ± 0.18 kcal/mol | 3.78 ± 0.21 kcal/mol | 4 ± 0.12 kcal/mol
18 | SAGGSASIKVTYRFPPDTTVEQAIEDLIAYLEAQTNVKISIPSYTVEREGDYLLVTADILIEPLPESAGGSA [r15_105_TrMRF] | 4.18 ± 0.086 kcal/mol | 4.59 ± 0.073 kcal/mol | 4.61 ± 0.056 kcal/mol
19 | SAGGSAGGSAGKLRVRIPPRLRERLRKRKRVRLRLRVEEREVRDEDGNLRRVRRLEIELESAGGSAGGSAGG [r11_113_TrROS_Hall] | 0.819 ± 0.15 kcal/mol | 1.42 ± 0.17 kcal/mol | 2.03 ± 0.19 kcal/mol
20 | SAGGPMKPFLKNFSGPEEAIAFVNKLREELKGPVGLTLIFPDGSVIEVVDPQKLESIDNFEVIVTVSESAGG [r13_620_JUSTAS] | 1.39 ± 0.039 kcal/mol | 1.69 ± 0.096 kcal/mol | 1.8 ± 0.085 kcal/mol
21 | SAMVLRLVVTVTGKIGDSLSTTTITREVSLEEYSEEELEALAEAVADAIRAANPEATVSLSILPEEELESAG [r14_723_JUSTAS] | 2.47 ± 0.074 kcal/mol | 2.58 ± 0.097 kcal/mol | 2.565 ± 0.02 kcal/mol

Row | Sequence | folding stability dG unfold [1] | folding stability dG unfold [2] | folding stability dG unfold [3]
22 | SAGGSAGGSAGMTLEELLRKAKPGQTLTLRVRVVERNEDGSLSEREFTFTFRLELKPEDLSAGGSAGGSAGG [r11_347_TrROS_Hall] | 2.55 ± 0.077 kcal/mol | 3.15 ± 0.21 kcal/mol | 3.61 ± 0.06 kcal/mol
23 | SMPLTPAEVAEARARAAREAAEAAAGVPVTVRVTLSTPDRELTVTLPATESLAAVMKAHPDVTVEVEVEASA [r9_513_JUSTAS] | 0.459 ± 0.043 kcal/mol | 0.284 ± 0.059 kcal/mol | 0.0452 ± 0.11 kcal/mol
24 | SAGGMLLLTLTVDRVEEAEFPEKVPYLRTTTQPVVVPGTTLEEAEAVAAALAAAHGVPVTLTVTPETGSAGG [r13_320_JUSTAS] | -0.314 ± 0.16 kcal/mol | -0.189 ± 0.072 kcal/mol | -0.175 ± 0.11 kcal/mol
25 | SAGGAITLEYEVETEEEAEKAIEELEKELKEKFGGPVKIEKATIEKTEDPSVPREKYRLKLTIEINKSAGGS [r8_171_JUSTAS] | 0.198 ± 0.13 kcal/mol | 0.858 ± 0.28 kcal/mol | 1.08 ± 0.11 kcal/mol
26 | SAGGSAGGSAKEKYILLKVKPGQKVEIEYENGEKKEVEVLEDGYLLIKVKEKNAKIKIKIKSAGGSAGGSAG [r3_334_TrROS_Hall] | 1.85 ± 0.17 kcal/mol | 2.76 ± 0.32 kcal/mol | 2.82 ± 0.051 kcal/mol
27 | SAKIKIEKKEDGTIVIEVEAESEEEAEEAVKELVKELEKKGIKVEVVEVKIEKDPEKKGKYRVTIVIKKSAG [r14_119_TrROS_Hall] | 2.69 ± 0.21 kcal/mol | 3.76 ± 0.33 kcal/mol | 4.39 ± 0.18 kcal/mol
28 | SAGGSAGGSAGGSGMVNLPEPIKVTKEEPLPDGSVRYTIEYPDSTITVFKYPDGIKIESSAGGSAGGSAGGS [r4_280_JUSTAS] | 0.35 ± 0.049 kcal/mol | 0.393 ± 0.1 kcal/mol | 0.29 ± 0.24 kcal/mol
29 | SAGGSAGGSAGGMYYAIITNKNGKKKIIKFKSLEEMEEAAKKNNIKIEIIPKEELEKLLSAGGSAGGSAGGS [r10_66_TrROS_Hall] | 3.56 ± 0.11 kcal/mol | 3.65 ± 0.069 kcal/mol | 3.64 ± 0.043 kcal/mol
30 | SAGGSAGGSAGGSPKTILLEVNGRLVLVTVKDGKVEIRDLENPNKTYTFPPGAKILIVDSAGGSAGGSAGGS [r4_321_TrROS_Hall] | 1.61 ± 0.021 kcal/mol | 1.84 ± 0.06 kcal/mol | 1.91 ± 0.035 kcal/mol
31 | SAGGIKIQDPDDGEWIEFPLPIRNPGDGKPYPFKVEIPVRRDPENGRPYFYIEIEFPGNGRKMTFPLRSAGG [r13_262_TrROS] | 0.518 ± 0.06 kcal/mol | 0.918 ± 0.057 kcal/mol | 1.12 ± 0.058 kcal/mol
32 | SAGMMLIEVEKNGEPVEVAEVKDDEITITLPKEKVRIRIVNADTGEEVEAEATVEDGTITIKLPPGVKLSAG [r5_469_TrROS_Hall] | 0.669 ± 0.077 kcal/mol | 0.232 ± 0.19 kcal/mol | -0.794 ± 0.45 kcal/mol
33 | SAGDPEVVAEAEFPFTFPLAKIEVRISVYPDGTARIEVTITFPAPGKGNPKKPIKLRFRFEIKLAPDALSAG [r5_224_TrMRF] | 3.8 ± 0.3 kcal/mol | 5.12 ± 0.36 kcal/mol | 5.3 ± 0.15 kcal/mol
34 | SMRIHDSNGQSYTIMIRTPDPNVTPEKIVKAIDEAGYKVTEIQRPPEKGHVHINIRVRDRERAIEAIKELSA [r9_1154_TrROS] | 0.231 ± 0.12 kcal/mol | 0.0402 ± 0.12 kcal/mol | -0.253 ± 0.18 kcal/mol
35 | SAYKITIKITITDPVTGETTTITVELISSEEEAKKEAEKLAASYPGKKVTIDLVEVVPVPPLSEEELKLSSA [r9_421_JUSTAS] | 1.91 ± 0.081 kcal/mol | 2.43 ± 0.12 kcal/mol | 2.68 ± 0.054 kcal/mol
36 | SAGKIEKIVITKKKDGYVIKVYYKDNKKVKTYKAGKTLEEIKKKLEEEGFEIVKVEVKKVKPGEKVEISAGG [r19_386_TrROS_Hall] | 2.32 ± 0.18 kcal/mol | 3.06 ± 0.43 kcal/mol | 3.23 ± 0.21 kcal/mol
37 | SAGGSAGGSAGGKKIEIPGFEITKVEPLENDSVIAEGKFKNGKKYRILFLPNKVYINDESAGGSAGGSAGGS [r10_312_TrMRF] | 0.335 ± 0.16 kcal/mol | 0.357 ± 0.16 kcal/mol | 0.44 ± 0.2 kcal/mol
38 | SAGGSAGGSAGGKKYKVVSIEKTKDYVRITIYNEETGELKTFTFPPGSTVTIKPGDTLTSAGGSAGGSAGGS [r10_834_TrROS_Hall] | 3.88 ± 0.2 kcal/mol | 4.42 ± 0.12 kcal/mol | 4.53 ± 0.15 kcal/mol
39 | SAGGSAMPGMTLQELLDAIRALLPPGARARIYVRNPDGEVIELTDLDDITVEDLENAEIRIEIEPVSAGGSA [r15_144_TrROS_Hall] | 3.7 ± 0.1 kcal/mol | 3.88 ± 0.076 kcal/mol | 4.01 ± 0.052 kcal/mol
40 | SIYIKIPIDEIKPEWNKNGMITLEIKYPNGKTIKFEFPPGFQIDNIEVIKPGWIMFEFEIVPPADPEDAKSA [r9_501_TrROS] | 1.76 ± 0.12 kcal/mol | 2.2 ± 0.16 kcal/mol | 3.06 ± 0.082 kcal/mol
41 | SAGGSAGGDKNAKPQPIMIAIEIYNPNGRKQEHTFPFESLDDAKEFIEDWLPPGYQVKVDIYPVSAGGSAGG [r6_290_TrROS] | 0.322 ± 0.1 kcal/mol | 0.693 ± 0.16 kcal/mol | 0.709 ± 0.07 kcal/mol
